Source: patent US20260242735A1 (UNIVERSIT T BASEL, published 2026)

Experiments:
human CD33 L38A = human CD33 L38A (human, UniProt P20138 18-364); assay: alanine scan, flow cytometry;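 further: HEK293-T cells transiently expressing single-residue alanine mutants of CD33 (alanine swapped to serine), antibody binding read by fluorescence in duplicate, background-subtracted, expressed relative to wild-type CD33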
human CD33 D51A = human CD33 D51A (human, UniProt P20138 18-364); assay: alanine scan, flow cytometry;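 further: HEK293-T cells transiently expressing single-residue alanine mutants of CD33 (alanine swapped to serine), antibody binding read by fluorescence in duplicate, background-subtracted, expressed relative to wild-type CD33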
Sequence of human CD33 D51A (P20138 18-364 D51A limits assumed): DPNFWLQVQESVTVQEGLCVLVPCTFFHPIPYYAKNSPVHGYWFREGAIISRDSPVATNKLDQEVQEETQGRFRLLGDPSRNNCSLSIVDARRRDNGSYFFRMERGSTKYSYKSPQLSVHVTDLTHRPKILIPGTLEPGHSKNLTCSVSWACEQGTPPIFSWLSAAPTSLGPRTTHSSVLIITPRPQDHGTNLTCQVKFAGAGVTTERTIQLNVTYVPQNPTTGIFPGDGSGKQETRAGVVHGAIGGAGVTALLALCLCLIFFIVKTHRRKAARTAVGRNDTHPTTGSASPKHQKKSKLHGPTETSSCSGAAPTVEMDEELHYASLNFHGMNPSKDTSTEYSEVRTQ

human CD33 H57A = human CD33 H57A (human, UniProt P20138 18-364); assay: alanine scan, flow cytometry;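 further: HEK293-T cells transiently expressing single-residue alanine mutants of CD33 (alanine swapped to serine), antibody binding read by fluorescence in duplicate, background-subtracted, expressed relative to wild-type CD33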
Sequence of human CD33 H57A (P20138 18-364 H57A limits assumed): as the sequence (P20138 18-364 D51A limits assumed) above, with A34D, H40A counted along it

human CD33 W22A = human CD33 W22A (human, UniProt P20138 18-364); assay: alanine scan, flow cytometry;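 further: HEK293-T cells transiently expressing single-residue alanine mutants of CD33 (alanine swapped to serine), antibody binding read by fluorescence in duplicate, background-subtracted, expressed relative to wild-type CD33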
Sequence of human CD33 W22A (P20138 18-364 W22A limits assumed): as the sequence (P20138 18-364 D51A limits assumed) above, with W5A, A34D counted along it

human CD33 E81A = human CD33 E81A (human, UniProt P20138 18-364); assay: alanine scan, flow cytometry
Sequence of human CD33 E81A (P20138 18-364 E81A limits assumed): as the sequence (P20138 18-364 D51A limits assumed) above, with A34D, E64A counted along it

human CD33 T86A = human CD33 T86A (human, UniProt P20138 18-364); assay: alanine scan, flow cytometry
Sequence of human CD33 T86A (P20138 18-364 T86A limits assumed): as the sequence (P20138 18-364 D51A limits assumed) above, with A34D, T69A counted along it

human CD33 P19A = human CD33 P19A (human, UniProt P20138 18-364); assay: alanine scan, flow cytometry
Sequence of human CD33 P19A (P20138 18-364 P19A limits assumed): as the sequence (P20138 18-364 D51A limits assumed) above, with P2A, A34D counted along it

human CD33 I67A = human CD33 I67A (human, UniProt P20138 18-364); assay: alanine scan, flow cytometry
Sequence of human CD33 I67A (P20138 18-364 I67A limits assumed): as the sequence (P20138 18-364 D51A limits assumed) above, with A34D, I50A counted along it

human CD33 V25A = human CD33 V25A (human, UniProt P20138 18-364); assay: alanine scan, flow cytometry
Sequence of human CD33 V25A (P20138 18-364 V25A limits assumed): as the sequence (P20138 18-364 D51A limits assumed) above, with V8A, A34D counted along it

human CD33 E84A = human CD33 E84A (human, UniProt P20138 18-364); assay: alanine scan, flow cytometry
Sequence of human CD33 E84A (P20138 18-364 E84A limits assumed): as the sequence (P20138 18-364 D51A limits assumed) above, with A34D, E67A counted along it

human CD33 K77A = human CD33 K77A (human, UniProt P20138 18-364); assay: alanine scan, flow cytometry
Sequence of human CD33 K77A (P20138 18-364 K77A limits assumed): as the sequence (P20138 18-364 D51A limits assumed) above, with A34D, K60A counted along it

human CD33 D70A = human CD33 D70A (human, UniProt P20138 18-364); assay: alanine scan, flow cytometry
Sequence of human CD33 D70A (P20138 18-364 D70A limits assumed): as the sequence (P20138 18-364 D51A limits assumed) above, with A34D, D53A counted along it

human CD33 W60A = human CD33 W60A (human, UniProt P20138 18-364); assay: alanine scan, flow cytometry
Sequence of human CD33 W60A (P20138 18-364 W60A limits assumed): as the sequence (P20138 18-364 D51A limits assumed) above, with A34D, W43A counted along it

human CD33 L23A = human CD33 L23A (human, UniProt P20138 18-364); assay: alanine scan, flow cytometry
Sequence of human CD33 L23A (P20138 18-364 L23A limits assumed): as the sequence (P20138 18-364 D51A limits assumed) above, with L6A, A34D counted along it

[1] = biological target: T1, human CD33 extracellular region, wild type (human, UniProt P20138 18-259); assay: BLI Octet, IgG captured on AHC, CD33 analyte;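 further: CD33 variants and wild type run as analyte at 5, 50 and 500 nM, 700 s association then 1200 s dissociation, buffer-only reference subtracted, global 1:1 fit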
T1 construct: also called WT; CD33 wt
Procedure: (§1) Human CD33 wt and variants, were used as analyte at 3 different concentrations (500, 50 and 5 nM). Association of the analyte to the antibodies was monitored for 700 s and dissociation of the analyte from the antibodies was monitored for 1200 s. Reference subtraction was performed against buffer only wells. AHC tips were regenerated using 10 mM Glycine-HCl pH 1.7. Data were analyzed with Octet Data Analysis software HT 12.0. Data were fitted to a 1:1 binding model. Kinetic rates ka and kd and response signal were globally fitted.

[2] = biological target: human CD33 extracellular region Y50H (human, UniProt P20138 18-259); assay: BLI Octet, IgG captured on AHC, CD33 analyte;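 further: CD33 variants and wild type run as analyte at 5, 50 and 500 nM, 700 s association then 1200 s dissociation, buffer-only reference subtracted, global 1:1 fit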
Procedure: as §1

[3] = biological target: human CD33 extracellular region N20S (human, UniProt P20138 21-259); assay: BLI Octet, IgG captured on AHC, CD33 analyte;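 further: CD33 variants and wild type run as analyte at 5, 50 and 500 nM, 700 s association then 1200 s dissociation, buffer-only reference subtracted, global 1:1 fit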
Procedure: as §1

[4] = biological target: human CD33 extracellular region Y50H_Y49H (human, UniProt P20138 18-259); assay: BLI Octet, IgG captured on AHC, CD33 analyte;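 further: CD33 variants and wild type run as analyte at 5, 50 and 500 nM, 700 s association then 1200 s dissociation, buffer-only reference subtracted, global 1:1 fit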
Procedure: as §1

[5] = biological target: human CD33 extracellular region P48D (human, UniProt P20138 18-259); assay: BLI Octet, IgG captured on AHC, CD33 analyte
Procedure: as §1

[6] = biological target: human CD33 extracellular region F21Q (human, UniProt P20138 22-259); assay: BLI Octet, IgG captured on AHC, CD33 analyte
Procedure: as §1

[7] = biological target: human CD33 extracellular region Y50L (human, UniProt P20138 18-259); assay: BLI Octet, IgG captured on AHC, CD33 analyte
Procedure: as §1

[8] = biological target: human CD33 extracellular region P48S (human, UniProt P20138 18-259); assay: BLI Octet, IgG captured on AHC, CD33 analyte
Procedure: as §1

[9] = biological target: human CD33 extracellular region F21H (human, UniProt P20138 22-259); assay: BLI Octet, IgG captured on AHC, CD33 analyte
Procedure: as §1

[10] = biological target: human CD33 extracellular region W22H (human, UniProt P20138 18-259); assay: BLI Octet, IgG captured on AHC, CD33 analyte
Procedure: as §1

[11] = biological target: human CD33 extracellular region N20V (human, UniProt P20138 21-259); assay: BLI Octet, IgG captured on AHC, CD33 analyte
Procedure: as §1

[12] = biological target: human CD33 extracellular region F43S (human, UniProt P20138 18-259); assay: BLI Octet, IgG captured on AHC, CD33 analyte
Procedure: as §1

[13] = biological target: human CD33 extracellular region F21M (human, UniProt P20138 22-259); assay: BLI Octet, IgG captured on AHC, CD33 analyte
Procedure: as §1

[14] = biological target: human CD33 extracellular region R119A (human, UniProt P20138 18-259); assay: BLI Octet, IgG captured on AHC, CD33 analyte
Procedure: as §1

[15] = biological target: human CD33 extracellular region W22K (human, UniProt P20138 18-259); assay: BLI Octet, IgG captured on AHC, CD33 analyte
Procedure: as §1

[16] = biological target: human CD33 extracellular region F21S (human, UniProt P20138 22-259); assay: BLI Octet, IgG captured on AHC, CD33 analyte
Procedure: as §1

[17] = biological target: human CD33 extracellular region F21I (human, UniProt P20138 22-259); assay: BLI Octet, IgG captured on AHC, CD33 analyte
Procedure: as §1

[18] = biological target: human CD33 extracellular region Q24R (human, UniProt P20138 18-259); assay: BLI Octet, IgG captured on AHC, CD33 analyte
Procedure: as §1

[19] = biological target: human CD33 extracellular region W22T (human, UniProt P20138 18-259); assay: BLI Octet, IgG captured on AHC, CD33 analyte
Procedure: as §1

[20] = biological target: human CD33 extracellular region F21S_W22R (human, UniProt P20138 23-259); assay: BLI Octet, IgG captured on AHC, CD33 analyte
Procedure: as §1

[21] = biological target: human CD33 extracellular region W22E (human, UniProt P20138 18-259); assay: BLI Octet, IgG captured on AHC, CD33 analyte
Procedure: as §1

Sequence of human CD33 L38A (P20138 18-364 L38A limits assumed): as the sequence (P20138 18-364 D51A limits assumed) above, with L21A, A34D counted along it

B1: Refmab #3 (antibody, V domains shown)
VH: QVQLVQSGAEVKKPGSSVKVSCKASGYTFTDYNMHWVRQAPGQGLEWIGYIYPYNGGTGYNQKFKSKATITADESTNTAYMELSSLRSEDTAVYYCARGRPAMDYWGQGTLVTVSS
VL: DIQMTQSPSSLSASVGDRVTITCRASESVDNYGISFMNWFQQKPGKAPKLLIYAASNQGSGVPSRFSGSGSGTDFTLTISSLQPDDFATYYCQQSKEVPWTFGQGTKVEIK
notes: Full-length format is human IgG1 Fc silent (PG-LALA); The alanine scan used IgG or Fab
Human CD33 L38A
  Mean % WT Binding: 192 % WT
Human CD33 D51A
  Mean % WT Binding: 126 % WT
Human CD33 H57A
  Mean % WT Binding: 182 % WT
Human CD33 W22A
  Mean % WT Binding: 58.6 % WT
Human CD33 E81A
  Mean % WT Binding: 114 % WT
Human CD33 T86A
  Mean % WT Binding: 112 % WT
Human CD33 P19A
  Mean % WT Binding: 75.2 % WT
Human CD33 I67A
  Mean % WT Binding: 142 % WT
Human CD33 V25A
  Mean % WT Binding: 109 % WT
Human CD33 E84A
  Mean % WT Binding: 137 % WT
Human CD33 K77A
  Mean % WT Binding: 192 % WT
Human CD33 D70A
  Mean % WT Binding: 131 % WT
Human CD33 W60A
  Mean % WT Binding: 28.3 % WT
Human CD33 L23A
  Mean % WT Binding: 91.5 % WT

B2: Refmab #2 (antibody, V domains shown)
VH: QVQLVQSGAEVKKPGSSVKVSCKASGGTFSDYAISWVRQAPGQGLEWMGRIIPILGVADYAQKFQGRVTITADKSTRTAYMELSSLRSEDTAVYYCARNWADAFDIWGQGTMVTVSS
VL: DIQLTQSPSSLSASVGDRVTITCRASQGISSVLAWYQQKPGKAPKLLIYDASSLESGVPSRFSGSGSGTDFTLTISSLQPEDFATYYCQQFDSSITFGQGTKLEIK
notes: as for B1
Human CD33 L38A
  Mean % WT Binding: 112 % WT
Human CD33 D51A
  Mean % WT Binding: 59 % WT
Human CD33 H57A
  Mean % WT Binding: 112 % WT
Human CD33 W22A
  Mean % WT Binding: 110 % WT
Human CD33 E81A
  Mean % WT Binding: 107 % WT
Human CD33 T86A
  Mean % WT Binding: 113 % WT
Human CD33 P19A
  Mean % WT Binding: 111 % WT
Human CD33 I67A
  Mean % WT Binding: 122 % WT
Human CD33 V25A
  Mean % WT Binding: 87.1 % WT
Human CD33 E84A
  Mean % WT Binding: 114 % WT
Human CD33 K77A
  Mean % WT Binding: 123 % WT
Human CD33 D70A
  Mean % WT Binding: 110 % WT
Human CD33 W60A
  Mean % WT Binding: 2.8 % WT
Human CD33 L23A
  Mean % WT Binding: 83.4 % WT

B3: Refmab #1 (antibody, V domains shown)
VH: EVQLVQSGAEVKKPGSSVKVSCKASGYTITDSNIHWVRQAPGQSLEWIGYIYPYNGGTDYNQKFKNRATLTVDNPTNTAYMELSSLRSEDTAFYYCVNGNPWLAYWGQGTLVTVSS
VL: DIQLTQSPSTLSASVGDRVTITCRASESLDNYGIRFLTWFQQKPGKAPKLLMYAASNQGSGVPSRFSGSGSGTEFTLTISSLQPDDFATYYCQQTKEVPWSFGQGTKVEVK
notes: Full-length format is human IgG1 (Absolute Antibody Ab00283-10.0); The alanine scan used IgG or Fab; also called hP67.6
Human CD33 L38A
  Mean % WT Binding: 94.8 % WT
Human CD33 D51A
  Mean % WT Binding: 82.4 % WT
Human CD33 H57A
  Mean % WT Binding: 78.2 % WT
Human CD33 W22A
  Mean % WT Binding: 79.4 % WT
Human CD33 E81A
  Mean % WT Binding: 83 % WT
Human CD33 T86A
  Mean % WT Binding: 79.1 % WT
Human CD33 P19A
  Mean % WT Binding: 80.8 % WT
Human CD33 I67A
  Mean % WT Binding: 98.1 % WT
Human CD33 V25A
  Mean % WT Binding: 90.7 % WT
Human CD33 E84A
  Mean % WT Binding: 92.2 % WT
Human CD33 K77A
  Mean % WT Binding: 95.6 % WT
Human CD33 D70A
  Mean % WT Binding: 81.3 % WT
Human CD33 W60A
  Mean % WT Binding: 0.7 % WT
Human CD33 L23A
  Mean % WT Binding: 82.7 % WT

B4: Refmab #1 (antibody, human IgG1, V domains shown)
VH: EVQLVQSGAEVKKPGSSVKVSCKASGYTITDSNIHWVRQAPGQSLEWIGYIYPYNGGTDYNQKFKNRATLTVDNPTNTAYMELSSLRSEDTAFYYCVNGNPWLAYWGQGTLVTVSS
VL: DIQLTQSPSTLSASVGDRVTITCRASESLDNYGIRFLTWFQQKPGKAPKLLMYAASNQGSGVPSRFSGSGSGTEFTLTISSLQPDDFATYYCQQTKEVPWSFGQGTKVEVK
notes: also called hP67.6; Absolute Antibody Cat. No. Ab00283-10.0
[1]
  % WT binding: 100%
[2]
  % WT binding: 104%
[3]
  % WT binding: 37.8%
[4]
  % WT binding: 76.4%
[5]
  % WT binding: 71.9%
[6]
  % WT binding: 0%
[7]
  % WT binding: 76.1%
[8]
  % WT binding: 79.5%
[9]
  % WT binding: 0%
[10]
  % WT binding: 106%
[11]
  % WT binding: 18.6%
[12]
  % WT binding: 104%
[13]
  % WT binding: 0%
[14]
  % WT binding: 121%
[15]
  % WT binding: 0%
[16]
  % WT binding: 0%
[17]
  % WT binding: 0%
[18]
  % WT binding: 67.9%
[19]
  % WT binding: 15%
[20]
  % WT binding: 0%
[21]
  % WT binding: 26.4%

B5: Refmab #4 (antibody, V domains shown)
VH: QVQLVQSGAEVKKPGESVKVSCKASGYTFTNYGMNWVKQAPGQGLEWMGWINTYTGEPTYADKFQGRVTMTTDTSTSTAYMEIRNLGGDDTAVYYCARWSWSDGYYVYFDYWGQGTSVTVSS
VL: DIVMTQSPDSLTVSLGERTTINCKSSQSVLDSSTNKNSLAWYQQKPGQPPKLLLSWASTRESGIPDRFSGSGSGTDFTLTIDSPQPEDSATYYCQQSAHFPITFGQGTRLEIK
notes: as for B1
Human CD33 L38A
  Mean % WT Binding: 96.8 % WT
Human CD33 D51A
  Mean % WT Binding: 36 % WT
Human CD33 H57A
  Mean % WT Binding: 67.3 % WT
Human CD33 W22A
  Mean % WT Binding: 187 % WT
Human CD33 E81A
  Mean % WT Binding: 90.6 % WT
Human CD33 T86A
  Mean % WT Binding: 103 % WT
Human CD33 P19A
  Mean % WT Binding: 20.4 % WT
Human CD33 I67A
  Mean % WT Binding: 67.2 % WT
Human CD33 V25A
  Mean % WT Binding: 49.1 % WT
Human CD33 E84A
  Mean % WT Binding: 120 % WT
Human CD33 K77A
  Mean % WT Binding: 123 % WT
Human CD33 D70A
  Mean % WT Binding: 82.7 % WT
Human CD33 W60A
  Mean % WT Binding: 1 % WT
Human CD33 L23A
  Mean % WT Binding: 23.7 % WT
